Assay: soluble on expression in E. coli; label from the status in PepcDB or PDB records

Sequence | soluble on expression in E. coli
MSLKIIPYSVNVMDEHGVIIASGEPSRLRQRHEGAILALKENRIVEIDSATANQLKGVRSGINLPISFHEQLIGVVGITGEPEEVRAYAELVKMAAELVIEHMVLIEQRQWDKRYREELINQLILRENSTESLRSMAAYLGIDLAVPRVVLIIELSQPDREALRNVMDYFENHARNHLVTFTEFNELIIIKPITLKEGKWNTRQEMGELQIFKSWAASSGFSRILVGGYFAGETGLHRSLLTARATQAMAKRQKLRSQYIFYHDHALPALLSGLSESWQVQELSRLWLQLVQHDAKGVLQQTLRTWFEHNCDLTQTAKALHIHVNTLRYRLQRCEDITHIKINELKSTLWLYIGMELQAESVSSDKLPLPGREGHHHHHH | not soluble
RNDTECDLCGGDPEKKCHSCSCRVCGGKHEPNMQLLCDECNVAYHIYCLNPPLDKVPEEEYWYCPSCKTD | soluble
MGHHHHHHSHMAVEDEGLRVFQSVKIKIGEAKNLPSYPGPSKMRDCYCTVNLDQEEVFRTKIVEKSLCPFYGEDFYCEIPRSFRHLSFYIFDRDVFRRDSIIGKVAIQKEDLQKYHNRDTWFQLQHVDADSEVQGKVHLELRLSEVITDTGVVCHKLATRIVECQGLPIVNGQCDPYATVTLAGPFRSEAKKTKV | not soluble
MENALSTLPLTAPSAELPRFGPPHIPIREDWLDRQREEILDPGLPIVDAHHHLWDRPGQRYMFEDFLRDTGSGHNIRATVYVQCRSMYRLDGPAAMRPVGEAEFVNGVAARSASGMYGPMRACAAIVGYADLTLGAAVEEVLHALVRAAPDRLRGVRNMTAAHASPAVAPGFGRVPEGLLSDARFRAGYARLAPLGLSYDVWAFHSQLAEVLDLARAYPDTALIVNHAGGPLGIGPYAGQRDAVMRDWDHHLRALADCPNVALKLGGLGMHISGLRFHEQDMPPSSEALAEAWRPWIHTAIERFGAQRCMFESNFPVDKGMAAYAAVWNAFKRLARGATPRERQALFAGTAARLYRLPASVLALEHHHHHH | not soluble
MPILTIREVCNINHWGIGYYDVDDSGEIIVRPNPSQHNQTVSLQKLTEAVQQKHQARLPVLFCFPQILEHRLRDINRAFQTAREECGYKGGYCLVYPIKVNQHRRVIESLMSSGQPHGLEAGSKAELMAVLAHAGNRQTLIVCNGYKDREYIRFALMGEKLGHQVYLVIEKLSEIQMVLEEAEKLGIKPRLGVRARLASQGSGKWQSSGGEKSKFGLSASQVLQLVDILKQKNRLDCLQLLHFHLGSQLGNIRDVATGVHESARFYVELHKLGVNIRCFDVGGGLGVDYEGNRTQSDCSVNYSLNEYAATVVWGISQACLEHGLPHPTIITESGRGITAHHAVLVANVIGVERYKPRRLDAPSPEAPRVLHSMWETWTDISASREKRSLRSWIHEGQFDLADVHNQYNVGLLSLAQRAWAEQLYLNICHEVGELFNEKHRSHRTIIDELQERFADKLYVNFSLFQSLPDAWGIDQLFPVCPITGLNEPIARRAVLLDITCDSDGTIDHYIDGDGIAGTMPMPDYPEEEPPLLGFFMVGAYQEILGNMHNLFGDTATADVVVGEDGQFTVIDYDEGNTVADMLEYVYQDPKELMKRYREQIEHSDLPASQAMSFLKELEAGLNGYTYLEDE | not soluble
MVNFFRLNLSSNQAAAVTVSETAELPEALEQLGLSNSRPVLVIVGGASQTSEADFLRIQSLFVEVLAPIAQSLGAYVVDGGTDAGVMRLMGDARSQINGQFPLIGVAPTAKVILPNQTTILADDATPLEPHHSHFVLIPGSKWGDESPWIVKVATLLANGLPSITVLINGGEISFIDALNSVIAGRLVIVIAGSGRTADKIASALRGYATDERATELAASDHIQTIDLEAAPEELIDTMTNLLLNLEHHHHHH | not soluble
MSFRETFLNNKFKFACRDSFLIEYYLEECYMSKKIINVVAAAIEKDGKIFCAQRPEGKSLGGYWEFPGGKLKEGESPEEALIREIYEELNSKIEIISFVNEASYDYDFGTVVMKTFHAKLVCGNLDLLEHQDSVWLEPSRLKTLNWAPVDRPAVELLSKEGHHHHHH | soluble
MKIAFLFRTSPHGTSISREGLDAILAATAFCEPNDIGIFFIDDGVLNLIDNQQPEIIQQKDFIRTFKLLDLYDVEQRFICTASLQKFKLDNRELILSCEKIDRSLLLEKLNQAGKLFTF | not soluble
MGSDKIHHHHHHMSAISYLHLLMLRQNNSMTRHNQTLFNLPLFNQHQFNPPQLNQVAIDQLQQGQAKRLSLLWLWLQQDETRLAALMVCQKVMQQQGITDWLISAGFIRNLIWDNLHSMTSQPLNDIDVIYWRDNNPSSAEDQAIEALLVKQIALPWSVKNQARMHLRNGDMPYISCADAMSFWPEKQTAIGVKLASIDDLTSAEFQLQVTSVFGLSCLFDLSLSPNPKRDKAIFNHRVSQKGWLIHYSKLLVTE | not soluble
MKKTFNLVATAAAGIEAVVGKELRNLGLDCQVENGRVLFKGNIETIAKSNLWLRSADRIKIVVGEFPARTFEELFQGVYALDWENYLPLGCQFPVAKAKSVKSKLHNEPSIQGITKKAIVKKLQHYFHRPDSVPLPENGPEFKIEISLLKDQARVMIDTTGPSLFKRGYRTEKGGAPIKENMAAAIILLSNWFPDKPFVDPTCGSGTFCIEAAMIGMNIAPGFNRDFAFEEWPWVDEALVTRVRNEADEQADYDIQLDISGFDFDGRMVEIARKNAREVGLEDVVKLKQMRLQDFKTNKINGVLISNPPYGERLLDDKAVDILYNEMGETFAPLKTWSQFILTNDTDFEQKFGRKADKKRKLYNGSLKVDLYQFYGQRVKRVLR | soluble
AAAMVPGRSESWERGEPGRPALYFCGSIRGGREDRTLYERIVSRLRRFGTVLTEHVAAAELGARGEEAAGGDRLIHEQDLEWLQQADVVVAEVTQPSLGVGYELGRAVAFNKRILCLFRPQSGRVLSAMIRGAADGSRFQVWDYEEGEVEALLDRYFEADPPGQV | not soluble
MIRHFKHKGLQLFFETGDKSGIRPDHASRLARQLRQLNDAVNPREMNIPGWKLHPLSGDLSGYWSVMVNGNWRMIFVFDGEDVILVDYRDDH | not soluble
MSEYREIITKAVVAKGRKFTQCTNTISPEKKPSSILGGWIINHKYDAEKIGKTVEIEGYYDINVWYSYADNTKTEVVTERVKYVDVIKLRYRDNNYLDDEHEVIAKVLQQPNCLEVTISPNGNKIVVQAEREFLAEVVGETKVVVEVNPDWEEDDEEDWEDELDEELEDINPEFLVGDPEELEHHHHHH | soluble
MQHYLLDSNQRLNVSFSKDSVAAYYQCFNQPYRKEVPPLMCASLWPKFDLFKKYANSELILTKSAINQTQKIEVDTIYVGHLEDIECRQTRNITRYTMALTLTKNDQHVITVTQTFIKAMK | not soluble
MIAEQHQAVVDSGASKKGAKVGFVSLGCPKNLVDSERILTQLRTEGYDVTNSYDDAELVIVNTCGFIDSAVQESLDTIGEALAANGKVLVTGCLGVKKDEIIELHPNVLGVTGPHAYDEVLAQVHEHVAKPEHNPFIDLVPPQGVKLTPKHYAYLKISEGCNHRCTFCIIPSMRGDLDSRPVGDVLGEAKRLVDSGVKELLVISQDTSAYGVDVKHKTDFWDGMPVKTHMQQLCEELAKQGVWIRLHYVYPYPHVDKIIPLMAEGKILPYLDIPFQHANKRILKLMKRPGSSDRVLERIAKWREICPELVIRSTFIVGFPGETEEEFEELLNFLEEAQLDRVGCFKYSPVEGATANALPDHVSDEVMEDRLQRFMAVQAKISSDKLQVRIGQEYLILVDEVNGLGIVGRSYMDAPEVDGKVYLSDDYDAKPGDQIWVQIIHADEHDVWGVRVED | soluble
MSLNLAKRILQGEQLTKETVLKIYEDTNIDTLDLLNEAYILRKHYFGKKVKLNMILNAKSGICPENCGYCGQSRDIKQKQRYALIPEEQIIDGAKVAHDNHIGTYCIVMSGRGPSDKEVDHISNTVRTIKSQHPQLKICACLGLTNDEQAKKLKSAGVDRYNHNINTSENYHDNVVTTHSYKDRTDTIELMKANNISPCSGVICGMGESNQDIVDMAFALKEMDADSIPINFLHPIKGTKFGSMDDLTPMKCLRIVALFRLINPTKEIRIAGGREVNLRSLQPLALKAANSIFVGDYLITGGQPNQLDYDMINDLGFEIDYDTCENKENKNDVSRANEGHHHHHH | soluble
